According to the RNAGym collection of RNA variant scans (doi:10.1073/pnas.2313332121):
This sample holds only a part of the variants without activity.

B1: TPR 5TU (parent)
chain: GGAUCUUCUCGAUCUAACAAAAAAGACAAAUCUGCCACAAAGCUUGAGAGCAUCUUCGGAUGCAGAGGCGGCAGCCUUCGGUGGCGCGAUAGCGCCAACGUUCUCAACUAUGACACGCAAAACGCGUGCUCCGUUGAAUGGAGUUUAUCAUG

Variants of: B1
Assay: polymerase ribozyme fitness, log enrichment relative to wild type (log ratio); higher = more active; in vitro selection for triplet polymerase activity
Procedure, shortened: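 After PCR construction and transcription, each subunit's mutant library from a heterodimeric triplet polymerase ribozyme was annealed with a biotinylated primer, the partner subunit and triplets. Incubation was frozen, at −7 °C, and extended constructs were gel-excised, bound to streptavidin beads and amplified by RT-PCR, in one selection round done in triplicate. Fitness is the logarithm of a genotype's enrichment divided by that of the wild type, from inverse-variance-weighted replicate averages of Illumina-sequenced inputs and outputs. The base of the logarithm is 2, and genotypes needed ≥10 input reads and ≥1 read per output.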

Variant	polymerase ribozyme fitness (log ratio)
GGAUCUUCUCGAUCUAACAAAAAAGACAAAUCUGCCACCAAGCUUGAGAGCAUCUUCGGAUGCAGAGGCGGCAGCCUUCGGUGGCGCGAUCGCGCCAACGUUCUCAACUAUGACACGCAAAACGCGUGCUCCGUUGGAUGGAGUUUAUCAUG [A39C A91C A137G]	≤ -4.2
GGAUCUUCUCGAUCUAACAAAAAAGACAAAUCUGCCACACAGCUUGAGAGCAUCUUUGGAUGCAGAGGCGGCAGCCUUCGGUGGCGCGAUAGCGCCAACGUUCUCAACUAUGACACGCAAAACGCGUGCUCCGUUGAAUGGAGUUUAUCAUG [A40C C57U]	0.521
GGAUGUUCUCGAUCUAACAAAAAAGACAAAUCUGCCACAAAGCUUGAGAGCAUCUUCGGAUGCAGAGGCGGCAGCCUUCGGUGGAGCGAUAGCGCCAACGUUCUCAACUAUGACAAGCAAAACGCGUGCUCCGUUGAAUGGAGUUUAUCAUG [C5G C85A C116A]	0.0205
GGAUCUUCUCGAUCUAACAAAAAAGACAAAUCUGACACAAAGCUUGAGGGCAUCUUCGGAUGCAGAGGCGGCAGCCUUCGGUGGCGAGAUAGCGCCAACGUUAUCAACUAUGACACGCAAAACGCGUGCUCCGUUGAAUGGAGUUUAUCAUG [C35A A49G C87A C103A]	≤ -4.2
GGAUCUUCUCGAUCUAACAAAAAAGACAAAUCUGCCACAAAGCUUGAGAGCAUCUUCGGAUGCAGAGGCGGUAGCCUUCGGUGGCGCGAUAGCGCCAGCGUUCUCAACUAUGACACGCAAAACGCGUGCUCCGCUGAAUGGAGUUUAUCAUG [C72U A98G U134C]	-0.362
GGAUCUUCUCGAUCUAACAAAAAAGACAAAUCUGCCACAAAGCUUGAGAGCAUCUUCGGAUGCAGAGGCGGCAGCCUUCGGUGGCGCGAUAGCUCCAACGUUCUCAAUUAUGACACGCAAAACGCGUGCUCCGUUGAAUGGAGUUUAUCAUG [G94U C108U]	-3.54
GGAUCUUCUCGAUCUAACAAAAAAGACAAAUCUUCCACAAAGCUUGAGAGCAUCUUCGGCUACAGAGGCAGCAGCCUUCGGUCGCGCGAUAGCGGCAACGUUCCCAACUAUGACACGCAAAACGCGUGCUCCGUUGAAUGGAGUUUAUCAUG [G34U A60C G62A G70A G83C C95G U104C]	≤ -4.2
GGAUCUUCUCGAUCUUACAAAAAAGACAAAUCUGCCACAAAGCUUGAGAGCAUCUUCGGAAGCAGAGGCGGCAACCUUCGGUGGCGCGAUAGCGCGAACGUUCUCAACUAUGACACGCAAAACGCGUGCUCCGUUGAAUGGAGUUUAUCAUG [A16U U61A G74A C96G]	≤ -4.2
GGAUCUUCUCGAUCUAACAAAAAAGACAAAUCUGCCACAAUGCUUGAGAGCAUCUUCGGAUGCAGAGGCGGCAGCCUUCGGUGGCGCGAUAGCGUCACCGUUCUCAACUAUGACACGCAAAACGCGUGCUCCGUUGAAUGGAGUUUAUCAUG [A41U C95U A98C]	-1.48
GGAUAUGCUCGAUCUAACAAAAAAGACAAAUGUGCCACAAAGCUUGAGAGCAUCUUCGGAUGCAGAGGCGGCAGCCUUCGGUGGCGCGAUAGCGCCAACGUUCUCAACUAUGACUCGCAAAACGCGUGCUCCGUUGAAUGGAGUUCAUCAUG [C5A U7G C32G A115U U146C]	≤ -4.2
GGAGCUUCUCGAUCUAACAAAAAAGACAAAUCUGCCACAAUGCUUGAGACCAUCUUCGGAUGCAGAGGCGGCAGCCUUCGGUGGGGCGAUAGCGCCAACGUUCUCAACUAUGACACGCAAAACGCGUGCUCCGUUGAAUGGAGUUUAUCAUG [U4G A41U G50C C85G]	≤ -4.2
GGAUCUGCUUGAUCUAACAAAAAAGACAAAUCUGUCACAAAGCUUGAGAGCAUCUUCGGAUGCGGAGGCGGCAGCCUUCGGUGGCGCGAUAGCGCAAACGUUCUCAACUAUGACACGCAAAACGCGUGAUCCGUUGAAUGGAGUUUAUCAUG [U7G C10U C35U A64G C96A C129A]	≤ -4.2
GGAUCUUCUCGAUCUAACAAAAAAGACAAAUCUGCCACAAAGCUUGAGAGCAUCUUCGGAUGCAGAGGCGGCAGCCUUCGGUGGCGCGAUAACGCAAACGUUGUUAGCUAUGACACGCGAAACGUGUGCUCCGUUGAAUGGAGUUUAUAAUG [G92A C96A C103G C105U A107G A119G C125U C149A]	≤ -4.2
GGAUCUUCUAGAUCUAACAAAAAAGACAAAUCUGCCACAAAGCUUGAGAGCAUCUUCGAAUGCAGAGGCGGCAGCCUUCGGUGGCGCGAUUGCGCCAACGUUCUCAACUAAGACACGCAAAACGCGCGCUCCGUUGAUUGGAGUUUAUCGUG [C10A G59A A91U U111A U127C A138U A150G]	≤ -4.2
GGAUCUUCUCGAUCUAACAAAAAAAACAAAUCUGUCACAAAGCUUGAGAGCAUCUACGGCUGCAGAGGCGGCAGCCUUCGGUGGAGCGAUAGUGCCAACGUUCUCCACUAUGACACGCAAAACGCGUGCUCCGUUGAAUGGAGUUUAUCAUG [G25A C35U U56A A60C C85A C93U A106C]	≤ -4.2
GGAUCCUCUCGAUCUAACAAAAAAGACAAAUCUGCCACAAAGCUUGAGAGCAUCUUCGGAUGCAGAGGCGGCAGCCUUCGGUAGCGCGAUAGCGCCAACGUUCUCAACUAUGAUACGCAAAACGCGUGCUCCGUUGAAUGGAGUUUAUCAUG [U6C G83A C114U]	-2.57
GGAUCUUCUCGAUCUAACAAAAAAGACAAAUCUGCCACAAAGCUUGAGAGCAUCUUCGGAUGCAGAUGCGGCAGCCUUCGGUGGCGCGAUAGCGCCAACGUUCUCAACUAUGACACGUAAAACGCGUGCUCCGUUGAAUGGAGUUUAUCAUG [G67U C118U]	-2.87
GGAUCUUCUCGAUCUAACAAAAAAGACAAAUCUGCCACAAAGCUUGAGAGCAUCUUCGGAAGCAGAGGCGGCAGCUUUCGGUGGCGCGAUAGCGCCAACGUGCUCAACCAUGACACGCAAAACGCGUGCUCCGUUGAAUGGAGUUUAUCAUG [U61A C76U U102G U109C]	≤ -4.2
GGAUCUUCUCGAUCUAACAAAAAAGACAAAUCUGCCACAAAGCUUGAGAGCAUCUUCGGAUGCAGAGGCGGCAGCCUUCGGUGGCGCGAUAGCGCCAACGUUCUCAAGUAUGACACGCAAAACGCGUGCUCCGUUGAAUGGACUUUCUCAUG [C108G G143C A147C]	≤ -4.2
